Measurements published in publication PMC6033261 (Methods in molecular biology (Clifton, N.J.), 2015).

Target: His-Rab7 (UniProt P51149 1-207)
Experiment: bead-based flow cytometry

Sequence of His-Rab7 (P51149 whole entry): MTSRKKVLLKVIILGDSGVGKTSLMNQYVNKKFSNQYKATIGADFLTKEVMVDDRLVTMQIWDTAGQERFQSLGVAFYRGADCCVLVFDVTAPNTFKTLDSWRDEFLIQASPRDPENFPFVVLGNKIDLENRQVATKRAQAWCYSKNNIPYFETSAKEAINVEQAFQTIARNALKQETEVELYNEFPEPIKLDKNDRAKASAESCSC

B1: GST-RILP (Rab binding domain of RILP only) (domain or fragment, UniProt Q96NA2 240-316, looked up)
chain: QCRFSREEFEQILQERNELKAKVFLLKEELAYFQRELLTDHRVPGLLLEAMKVAVRKQRKKIKAKMLGTPEEAESSE
- Kd: 1870 ± 250 nM
